One test deals with 食蟹猴TSLP (cynomolgus monkey, UniProt A0A7N9CAT7 29-159). The test can be described thus: cell-based or functional assay.
Test [1] concerns the target T1, 人胸腺基质淋巴细胞生成素(Human Thymic Stromal Lymphopoietin, TSLP) (human, UniProt Q969D9 29-159). The test can be described thus: cell-based or functional assay.
For test [2], the target named is T1, 人胸腺基质淋巴细胞生成素(Human Thymic Stromal …). Description: SPR, Biacore T200, 25°C, antibody captured on Protein A chip, TSLP as analyte, 1:1 model, mean of three runs. Background: SPR reads the build-up and loss of mass on a sensor chip optically.

Sequence of 食蟹猴TSLP (A0A7N9CAT7 entry or part of it): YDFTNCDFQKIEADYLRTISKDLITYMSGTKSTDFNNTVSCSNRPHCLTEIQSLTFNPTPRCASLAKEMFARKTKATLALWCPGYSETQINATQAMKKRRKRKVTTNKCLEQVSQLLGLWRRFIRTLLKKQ

B1: Tezepelumab (antibody, V domains shown)
VH: QMQLVESGGGVVQPGRSLRLSCAASGFTFRTYGMHWVRQAPGKGLEWVAVIWYDGSNKHYADSVKGRFTITRDNSKNTLNLQMNSLRAEDTAVYYCARAPQWELVHEAFDIWGQGTMVTVSS
VL: SYVLTQPPSVSVAPGQTARITCGGNNLGSKSVHWYQQKPGQAPVLVVYDDSDRPSWIPERFSGSNSGNTATLTISRGEAGDEADYYCQVWDSSSDHVVFGGGTKLTVLG
With B1, the “IC50, inhibition of cynomolgus TSLP-induced STAT5 phosphorylation in SW756-STAT5-Luciferase reporter cells” value with 食蟹猴TSLP was 1.88 ng/mL.

B2: QX008N(HZD8G2-57) (antibody, V domains shown)
VH: EVQLVESGGGLVQPGGSLRLSCAASGFSLSSYYMSWVRQAPGKGLEWVGFISYGGSAYHATWAQGRFTISKDNSKNTLYLQMNSLRAEDTAVYYCAREFRSMTYGAEWGIWGQGTLVTVSS
VL: AYQMTQSPSSVSASVGDRVTITCQASESIYDTLAWYQQKPGKAPKLLIYSASSLASGVPSRFSGSGSGTDFTLTISSLQPEDFATYYCQQGYTMPDVDKNPFGGGTKVEIKR
As to B2, in test [1], the “IC50, inhibition of human TSLP-induced STAT5 phosphorylation in SW756-STAT5-Luciferase reporter cells” value stood at 0.837 ng/mL; the “IC50, inhibition of human TSLP-induced TARC(CCL17) release from human PBMC” value amounted to 77.1 ng/mL; the “IC50, inhibition of human TSLP-induced TARC(CCL17) release from human whole blood” value came to 0.839 ng/mL. The “IC50, inhibition of cynomolgus TSLP-induced STAT5 phosphorylation in SW756-STAT5-Luciferase reporter cells” value with 食蟹猴TSLP was determined as 0.889 ng/mL. In test [2], the Kd (usually the constant that tells how readily two partners part at equilibrium) worked out at 17.5 pM; the koff (as a rule, the first-order rate constant of dissociation) amounted to 2.99e-05 s⁻¹; the kon – broadly, a measure of how fast the partners come together – turned out to be 1.74e+06 M⁻¹ s⁻¹.
